Measurements published in patent publication US11312773B2, “Anti-PD-L1 antibody” (Fuso Pharmaceutical Industries, Ltd., priority 2016, dated 2022).

Key:
ovine PD-L1 = experiment: Flow cytometry reactivity with ovine PD-L1-EGFP expressing COS-7 cells; assay type: binding; conditions: 10 μg/ml
Experimental: COS-7 cells were subcultured at a density of 5×10^4 cells/cm^2 in 6-well plates, and then cultured overnight in RPMI 1640 medium containing 10% inactivated fetal bovine serum and 0.01% L-glutamine at 37° C. in the presence of 5% CO2. The pEGFP-N2-ovPD-1, pEGFP-N2-ovPD-L1, pEGFP-N2-poPD-1, pEGFP-N2-poPD-L1 or pEGFP-N2 (negative control) was introduced into COS-7 cells at 0.4 μg/cm^2 using Lipofectamine 2000 (Invitrogen). The cells were cultured for 48 hours (ovPD-1-EGFP expressing cell, ovPD-L1-EGFP expressing cell, poPD-1-EGFP expressing cell, and poPD-L1-EGFP expressing cell). In order to confirm the expression of ovine PD-1, ovine PD-L1, porcine PD-1 and porcine PD-L1 in the thus prepared expressing cells, intracellular localization of EGFP was visualized with an inverted confocal laser microscope LSM700 (ZEISS) or an all-in-one fluorescence microscope BZ-9000 (KEYENCE). It was confirmed by flow cytometry that rat anti-bovine PD-L1 monoclonal antibody cross-reacts with ovine and porcine PD-LL. […] After washing, the cells were reacted with allophycocyanine-labeled anti-rat Ig goat antibody (Beckman Coulter) at room temperature for 30 min. For analysis, FACS Verse (BD Bioscience) was used. As a negative control antibody, rat IgG2a (κ) isotype control (BD Bioscience) was used. For every washing operation and dilution of antibodies, 1% bovine serum albumin supplemented PBS was used.

[1] = system: canine CD80/PD-L1 binding; experiment: Canine CD80/PD-L1 binding inhibition ELISA (cCD80-Ig immobilized, cPD-L1-Ig); conditions: antibody 0, 2.5, 5 and 10 μg/ml
Experimental: Using the canine PD-1-Ig, PD-L1-Ig and CD80-Ig (described above), anti-PD-L1 antibody was tested for its ability to inhibit canine PD-1/PD-L1 binding and CD80/PD-L1 binding. Briefly, canine PD-1-Ig or CD80-Ig was immobilized on flat-bottom 96-well plates.

[2] = system: PBMCs of BLV-infected cattle; experiment: Biological activity test: IFN-γ production of PBMCs of BLV-infected cattle to BLV antigen; conditions: 10 μg/ml antibody, 2% FLK-BLV supernatant, 6 days, n=10
canine PD-L1 = experiment: Flow cytometry cross-reactivity with canine PD-L1 expressing cells; assay type: binding
Experimental: COS-7 cells were subcultured at a density of 5×10^4 cells/cm^2 in 6-well plates, and then cultured overnight in RPMI 1640 medium containing 10% inactivated fetal bovine serum and 0.01% L-glutamine at 37° C. in the presence of 5% CO2. The pEGFP-N2-cPD-1, pEGFP-N2-cPD-L1 or pEGFP-N2 (negative control) was introduced into COS-7 cells at 0.4 μg/cm^2 using Lipofectamine 2000 (Invitrogen). The cells were cultured for 48 hours (cPD-1-EGFP expressing cell and cPD-L1-EGFP expressing cell). In order to confirm the expression of canine PD-1 and PD-L1 in the thus prepared expressing cells, intracellular localization of enhanced green fluorescent protein (EGFP) was visualized with an inverted confocal laser microscope LSM700 (ZEISS) (Maekawa N, Konnai S, Ikebuchi R. Okagawa T, Adachi M, Takagi S, Kagawa Y. Nakajima C, Suzuki Y, Murata S, Ohashi K. PLoS One. 2014 Jun. 10; 9(6):e98415).
In order to identify rat anti-bovine PD-L1 monoclonal antibody showing cross-reactivity with canine PD-L1, flow cytometry was performed using the anti-bovine PD-L1 antibody prepared in 2.1 above. The anti-bovine PD-L1 antibody (10 μg/ml) was reacted with 2×10^5-1×10^6 cells at room temperature for 30 min. After washing, the anti-bovine PD-L1 antibody was detected with allophycocyanine-labeled anti-rat Ig goat antibody (Beckman Coulter). FACS Verse (Becton, Dickinson and Company) was used for analysis. […]

water buffalo leukocytes = experiment: Flow cytometry reactivity with water buffalo leukocytes; assay type: binding, water buffalo (Bubalus bubalis)
Experimental: Peripheral blood of water buffalo (Bubalus bubalis; Asian water buffalo) was hemolyzed with ACK buffer to isolate leukocytes. […] After washing, reaction with allophycocyanine-labelled anti-rat Ig goat antibody (Beckman Coulter) and fluorescein isothiocyanate-labeled anti-mouse IgG2 goat antibody (Beckman Coulter) was conducted at room temperature for 30 min. For analysis, FACS Calibur (BD Biosciences) was used. As a negative control antibody, rat IgG2a (κ) isotype control (BD Biosciences) was used. For every washing operation and dilution of antibodies, 10% inactivated goat serum supplemented PBS was used.

B1: 4G12: rat anti-bovine PD-L1 monoclonal antibody; VL SEQ ID NO: 1, VH SEQ ID NO: 2 (antibody, listed as Rattus norvegicus, V domains shown)
VH: MGWSQIILFLVAAATCVHSQVQLQQSGAELVKPGSSVKISCKASGYTFTSNFMHWVKQQPGNGLEWIGWIYPEYGNTKYNQKFDGKATLTADKSSSTAYMQLSSLTSEDSAVYFCASEEAVISLVYWGQGTLVTVSS
VL: MESQTHVLISLLLSVSGTYGDIAITQSPSSVAVSVGETVTLSCKSSQSLLYSENQKDYLGWYQQKPGQTPKPLIYWATNRHTGVPDRFTGSGSGTDFTLIISSVQAEDLADYYCGQYLVYPFTFGPGTKLELK
Q: How did the “Binding to ovine PD-L1” value (ovine PD-L1) turn out when B1 was run?
A: The value was “binds to ovine and porcine PD-L1”.

Q: And the “Inhibitory activity against canine CD80/PD-L1 binding” value [1]?
A: Its value is “reduced the amounts of binding”.

Q: And the “IFN-γ response of bovine PBMCs to BLV antigen” value [2]?
A: The value was “increases”.

Q: What about the “Cross-reactivity with / binding to canine PD-L1” value (canine PD-L1) of the same molecule?
A: The value was “showed cross-reaction with canine PD-L1”.

Q: What about the “Binding to blood macrophages (CD14+ CD11b+ cells) of water buffalo” value (water buffalo leukocytes) of the same molecule?
A: The value was “strongly bound”.

Q: And the “Binding to lymphocytes (CD14− CD11b− cells) of water buffalo” value (water buffalo leukocytes)?
A: The value was “weakly bound”.
